For eleven sequences, IC50 results are on record in the Immune Epitope Database (IEDB).

The test concerns the target HLA-A*02:01. The test is described as follows: IEDB peptide-MHC binding, cellular MHC/competitive/fluorescence; ≥ and ≤ were set here for values at or beyond the usual limits of such assays. Conditions: source organism: Human herpesvirus 5 strain AD169.
In turn, MLNIPSINV showed an IC50 of 2.5 µM.

On to ILARNLVPMV, for which the IC50 was 1 µM.

Sequence VLCPKNMII showed an IC50 of 12 µM. Compared with the last sequence, the IC50 is about 12-fold higher.

Take YLESFCEDV: the half-maximal inhibitory concentration (IC50) came out at 16 µM.

NLLMNGQQI displayed an IC50 of 5 µM.

Regarding ALFFFDIDL, the IC50 amounted to 2 µM.

For RLLQTGIHV, the IC50 came out at 2 µM.

For GLSISGNLL, the 50% inhibitory concentration (IC50) amounted to 16 µM.

LLQTGIHVRV yielded an IC50 of 5 µM. This IC50 lies about 3.2-fold lower than the previous one.

On to SIYVYALPL, for which the IC50 was 5 µM.

The sequence DIYRIFAEL returned an IC50 of 12 µM.
